# Laboratory results: paper PMC6682002 (ACS Omega, 2019)
# B1: recombinant ClpP1 (rClpP1) of Leptospira interrogans, LIC11417 (enzyme)
# chain: not shown
# B2: recombinant ClpP2 (rClpP2) of Leptospira interrogans, LIC11951 (enzyme, UniProt Q72R01 1-197, looked up)
# chain: MPETEKIAEVFEELTGSKISKNFLDHRKIFLWGPVTDESSKDLVGKLLYLEMKDPGKKITFYINSPGGVVTSGMTVFDTIKMISSPVHTVCMGMAASMGSVLLAAGTKGERSIWPNGKVMIHQPSIGGQIVAPATDLKIHAEEILKTKTKLNQILADACGHPISKLEEDTDRDYYMDAEEAIKYGIVDKLATKIDFN
# What was measured:
# [1] = biological target: B2; assay: ITC
# native gel or EMSA = biological target: the molecule itself; assay: native gel or EMSA
# cross-linking = biological target: the molecule itself; assay: cross-linking
# SEC = biological target: the molecule itself; assay: SEC
# [2] = biological target: B1; assay: ITC
Binder,dH [1] [cal^–1 mol^–1],stoichiometry N [1],stoichiometry N (native gel or EMSA),stoichiometry N (cross-linking),stoichiometry N (SEC),Kd [2] [nM],binding result (native gel or EMSA)
B1,-30200 ± 2640,0.945 ± 0.05,21,7,14,,
B2,,,14,7,,2020 ± 100,
"rClpP2S97A, catalytic serine mutant of recombinant ClpP2 of Leptospira interrogans (enzyme, UniProt Q72R01 1-197, looked up) MPETEKIAEVFEELTGSKISKNFLDHRKIFLWGPVTDESSKDLVGKLLYLEMKDPGKKITFYINSPGGVVTSGMTVFDTIKMISSPVHTVCMGMAAAMGSVLLAAGTKGERSIWPNGKVMIHQPSIGGQIVAPATDLKIHAEEILKTKTKLNQILADACGHPISKLEEDTDRDYYMDAEEAIKYGIVDKLATKIDFN",,,,,,,binds
"rClpP1S98A, catalytic serine mutant of recombinant ClpP1 of Leptospira interrogans (enzyme) not shown",,,,,,,binds
